The labels stand for the following.
B1: BCY7595 (peptide)
peptide: Ac-CPFGCMKNWSW[Pip]IWC
modifications: linker 1-5-15 via TATA
B2: BCY7592 (peptide)
peptide: Ac-CPFGCMKNWS[2Nal]PIWC
modifications: linker 1-5-15 via TATA
B3: BCY7591 (peptide)
peptide: Ac-CPFGCMKNWS[1Nal]PIWC
modifications: linker 1-5-15 via TATA
B4: BCY7420 (peptide)
peptide: XACPFGCMKNWSWPIWCA
modifications: N-terminal X = 1-Nal; TATA on 3 Cys
notes: also called 80-09-02-N009
B5: BCY7393 (peptide)
peptide: Ac-CVTTSYDCWVTLGHCSRF
modifications: linker 1-8-15 via TATA
B6: BCY7359 (peptide)
peptide: ACPFGCM[dA]NWSWPIWCTNK
modifications: linker 2-6-16 via TATA
B7: BCY7365 (peptide)
peptide: ACPFGCMKNWSWP[dA]WCTNK
modifications: linker 2-6-16 via TATA
B8: BCY7360 (peptide)
peptide: ACPFGCMK[dA]WSWPIWCTNK
modifications: linker 2-6-16 via TATA
B9: BCY7352 (peptide)
peptide: ACAFGCMKNWSWPIWCTNK
modifications: linker 2-6-16 via TATA
notes: also called 80-09-02-T01-N022
B10: BCY7354 (peptide)
peptide: ACPFACMKNWSWPIWCTNK
modifications: linker 2-6-16 via TATA
notes: also called 80-09-02-T01-N020
B11: BCY7357 (peptide)
peptide: ACPFGCMKAWSWPIWCTNK
modifications: linker 2-6-16 via TATA
notes: also called 80-09-02-T01-N027
B12: BCY7367 (peptide)
peptide: ACPFGCMKNWSWPIWC[dA]NK
modifications: linker 2-6-16 via TATA
B13: BCY7356 (peptide)
peptide: ACPFGCMANWSWPIWCTNK
modifications: linker 2-6-16 via TATA
notes: also called 80-09-02-T01-N026
B14: BCY7594 (peptide)
peptide: Ac-CPFGCMKNWSW[Aze]IWC
modifications: linker 1-5-15 via TATA
B15: BCY7391 (peptide)
peptide: Ac-CPFGCMKNWSWPIWCTNK
modifications: linker 1-5-15 via TATA
notes: also called 80-09-02-T01-N011
B16: BCY7421 (peptide)
peptide: XACPFGCMKNWSWPIWCA
modifications: N-terminal X = 2-Nal; TATA on 3 Cys
notes: also called 80-09-02-N010
B17: BCY7372 (peptide)
peptide: ACPFGCXKNWSWPIWCTNK
modifications: core CPFGC(Nle)KNWSWPIWC (printed (NIe)); TATA on 3 Cys
notes: also called 80-09-02-T01-N041
B18: BCY7521 (peptide)
peptide: XACPFGCMKNWSWPIWCA
modifications: N-terminal X = 44BPA (4,4-biphenylalanine); TATA on 3 Cys
notes: also called 80-09-02-N012
B19: BCY7350 (peptide)
peptide: ACPF[dA]CMKNWSWPIWCTNK
modifications: linker 2-6-16 via TATA
B20: BCY7426 (peptide)
peptide: Q[dK]WCAPLSDYWCNRICA
modifications: linker 4-12-16 via TATA
B21: BCY7370 (peptide)
peptide: AC[dA]FGCMKNWSWPIWCTNK
modifications: linker 2-6-16 via TATA
B22: BCY7559 (peptide)
peptide: {Ac-βAla}-[Sar][Sar][Sar][Sar][Sar]CPF[dA]CM[hArg]NWSWPIWC
modifications: linker 6-10-20 via TATA
notes: Bicyclic peptide cyclised with TATA
B23: BCY428 (peptide)
peptide: ACPFGCMKNWSWPIWCA
modifications: linker 2-6-16 via TATA
notes: Bicyclic peptide cyclised with TATA; also called 80-09-02-N002
B24: BCY7793 (peptide)
peptide: CPF[dD]CM[hArg]NWSTPIWC
modifications: linker 1-5-15 via TATA
notes: as for B22
B25: BCY8127 (peptide)
peptide: Ac-CP[1Nal][dD]CM[hArg]DWSTPIWC
modifications: linker 1-5-15 via TATA
notes: as for B22
B26: BCY8163 (peptide)
peptide: Ac-CP[1Nal][dCya]CM[hArg]DWSTP[Hyp]WC
modifications: linker 1-5-15 via TATA
notes: as for B22
B27: BCY7392 (peptide)
peptide: Ac-QKWCAPLSDYWCNRIC
modifications: linker 4-12-16 via TATA
notes: as for B22
B28: BCY8123 (peptide)
peptide: {Ac-βAla}-[Sar][Sar][Sar][Sar][Sar]CP[1Nal][dD]CM[hArg]DWSTPIWC
modifications: linker 6-10-20 via TATA
notes: as for B22
B29: BCY8211 (peptide)
peptide: Ac-CP[1Nal][dD]CL[hArg]DWSTPIWC
modifications: linker 1-5-15 via TATA
notes: as for B22
B30: BCY8030 (peptide)
peptide: Ac-CP[1Nal][dD]CM[hArg]NWSTPIWC
modifications: linker 1-5-15 via TATA
notes: as for B22
B31: BCY8038 (peptide)
peptide: Ac-CPF[dD]CL[hArg]NWSTPPWC
modifications: linker 1-5-15 via TATA
notes: as for B22
B32: BCY7390 (peptide)
peptide: Ac-CPFGCMKNWSWPIWC
modifications: linker 1-5-15 via TATA
notes: Bicyclic peptide cyclised with TATA; also called 80-09-02-N008
B33: BCY7393 (peptide)
peptide: Ac-CVTTSYDCWVTLGHCSRF
modifications: linker 1-8-15 via TATA
notes: as for B22
B34: BCY8182 (peptide)
peptide: Ac-CP[1Nal][dD]CMPDWSTP[Hyp]WC
modifications: linker 1-5-15 via TATA
notes: as for B22
B35: BCY8122 (peptide)
peptide: {Ac-βAla}-[Sar][Sar][Sar][Sar][Sar]CP[1Nal][dD]CM[hArg]DWSTP[Hyp]WC
modifications: linker 6-10-20 via TATA
notes: as for B22
B36: BCY8128 (peptide)
peptide: Ac-CP[1Nal][dR]CM[hArg]NWSTP[Hyp]WC
modifications: linker 1-5-15 via TATA
notes: as for B22
B37: BCY8120 (peptide)
peptide: {Ac-βAla}-[Sar][Sar][Sar][Sar][Sar]CP[1Nal][dD]CM[hArg]NWSTP[Hyp]WC
modifications: linker 6-10-20 via TATA
notes: as for B22
B38: BCY8125 (peptide)
peptide: Ac-CP[1Nal][dD]CM[hArg]HWSTP[Hyp]WC
modifications: linker 1-5-15 via TATA
notes: as for B22
B39: BCY8212 (peptide)
peptide: Ac-CP[1Nal][dD]CL[hArg]DWSTP[Hyp]WC
modifications: linker 1-5-15 via TATA
notes: as for B22
B40: BCY8213 (peptide)
peptide: Ac-CP[1Nal][dR]CL[hArg]DWSTP[Hyp]WC
modifications: linker 1-5-15 via TATA
notes: as for B22
B41: BCY8121 (peptide)
peptide: {Ac-βAla}-[Sar][Sar][Sar][Sar][Sar]CP[1Nal][dD]CM[hArg]HWSTP[Hyp]WC
modifications: linker 6-10-20 via TATA
notes: as for B22
B42: BCY8129 (peptide)
peptide: Ac-CP[1Nal][dR]CM[hArg]HWSTP[Hyp]WC
modifications: linker 1-5-15 via TATA
notes: as for B22
B43: BCY8214 (peptide)
peptide: Ac-CP[1Nal][dR]CL[hArg]HWSTP[Hyp]WC
modifications: linker 1-5-15 via TATA
notes: as for B22
B44: BCY8124 (peptide)
peptide: Ac-CP[1Nal][dD]CM[hArg]NWSTP[Hyp]WC
modifications: linker 1-5-15 via TATA
notes: as for B22
B45: BCY7391 (peptide)
peptide: Ac-CPFGCMKNWSWPIWCTNK
modifications: linker 1-5-15 via TATA
notes: Bicyclic peptide cyclised with TATA; also called 80-09-02-T01-N011

Ki and Kd data for 45 molecules are collected here from patent publication US20210269480A1 (published 2021).

*1 amine or outer side, *2 acyl side, *3 side chain or, on linkers, in order; H or OH if unused. Bridges are numbered along the chain shown (N, C = ends). Where no end group is shown, it is not given here. [ ]: non-standard residue; d: D form. TATA = O=C(CC[*:1])N1CN(C(=O)CC[*:2])CN(C(=O)CC[*:3])C1; 1Nal = N[C@@H](Cc1cccc2ccccc12)C(=O)O; 2Nal = N[C@@H](Cc1ccc2ccccc2c1)C(=O)O; Hyp = O=C(O)[C@@H]1C[C@@H](O)CN1; dCya = N[C@H](CS(=O)(=O)O)C(=O)O; hArg = N=C(N)NCCCC[C@H](N)C(=O)O; Pip = O=C(O)[C@@H]1CCCCN1; Aze = O=C(O)[C@@H]1CCN1; βAla = NCCC(=O)O; Sar = CNCC(=O)O

In the first test the target is T1, human Nectin-4 (human, UniProt Q96NY8 32-349).
T1 construct: a Gly32-Ser349 FLAG construct is described only under the SPR assay; also called PVRL4
T1 sequence (looked up): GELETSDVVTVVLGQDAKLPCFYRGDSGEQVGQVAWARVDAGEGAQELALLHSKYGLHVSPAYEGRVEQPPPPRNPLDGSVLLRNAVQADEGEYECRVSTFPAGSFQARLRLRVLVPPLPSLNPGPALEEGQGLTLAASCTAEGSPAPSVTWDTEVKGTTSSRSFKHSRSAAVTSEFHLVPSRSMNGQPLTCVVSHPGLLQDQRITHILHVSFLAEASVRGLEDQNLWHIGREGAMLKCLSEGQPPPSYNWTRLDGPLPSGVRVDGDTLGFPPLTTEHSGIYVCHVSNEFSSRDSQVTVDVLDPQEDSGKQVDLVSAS
As to the kind of experiment: FP competition, tracer SEQ ID NO 217. The procedure:
Peptides were diluted to an appropriate concentration in assay buffer as described in the direct binding assay with a maximum of 5% DMSO, then serially diluted 1 in 2. […] Measurements were conducted as for the direct binding assay, however the gain was determined prior to the first measurement. Data analysis was in Systat Sigmaplot version 12.0 where the mP values were fit to a user defined cubic equation to generate a Ki value: […]
Regarding B1, affinity was put at a Ki of 219 nM. With B2, the Ki (as a rule, a dissociation constant, usually derived from enzyme kinetics or from competition with a known ligand) came to 37.4 nM. The same measure, in the same setting: in the case of B3 it was 180 nM; in that of B4, 63.6 nM; in that of B5, 232 nM. Still for that read-out and setting: to B6 belongs 160 nM. B7 gave a Ki of 282 nM. Turning to B8, the Ki came to 68.2 nM. Compared with the last molecule, the Ki is about 4.1-fold lower.

The molecule B9 gave a Ki of 132 nM. This Ki lies about 1.9-fold higher than the previous one. Same read-out and setting: to B10 belongs 884 nM; to B11, 45.2 nM.

B12 showed a Ki of 26.3 nM. This Ki is about 1.7-fold lower than that of the molecule before. On the same count and under the same terms, in the case of B13 it was 43.4 nM; in that of B14, 73 nM. The same measure, in the same setting: to B15 belongs 13.3 nM. On the same count and under the same terms, in the case of B16 it was 28.5 nM; in that of B17, 72.6 nM; in that of B18, 224 nM.

In turn, B19 showed an inhibition constant Ki of 10 nM.

For the molecule B20, the Ki was determined as 69 nM. On to B21, for which the affinity, expressed as Ki, was 144 nM. This Ki is about 2.1-fold higher than that of the molecule before.

The next test concerns the target T2, Human Nectin-4 (residues Gly32-Ser349) with C-terminal FLAG tag, biotinylated (human, UniProt Q96NY8 32-349, randomly biotinylated with EZ-Link Sulfo-NHS-LC-LC-Biotin).
T2 construct: range 32-349; Captured through biotin on a streptavidin CM5 chip in the SPR assay; also called PVRL4; not shown: C-terminal FLAG tag
T2 sequence (looked up): T1 sequence (looked up)
As to the kind of experiment: SPR (Biacore), biotinylated human Nectin-4 on streptavidin chip.
As to B22, the Kd (as a rule, the concentration at which binding is half-saturated) came to 14.9 nM. On the same count and under the same terms, in the case of B23 it was 334 nM; in that of B24, 47 nM; in that of B25, 1.84 nM.

Turning to B26, the dissociation constant Kd turned out to be 0.61 nM. B27 registered a Kd of 35.7 nM. As for B28, binding was put at a Kd of 2.66 nM. Compared with the last molecule, the Kd is about 13-fold lower.

Take B29: the Kd was 7.32 nM. The same measure, in the same setting: in the case of B30 it was 1.71 nM; in that of B31, 44.5 nM; in that of B32, 40.3 nM. On the same count and under the same terms, to B33 belongs 1380 nM; to B34, 0.96 nM. In turn, B35 registered a dissociation constant Kd of 0.89 nM. Regarding B36, binding was put at a Kd of 1.06 nM. Same read-out and setting: to B37 belongs 0.67 nM. Same read-out and setting: in the case of B38 it was 0.52 nM; in that of B39, 2.42 nM; in that of B40, 1.95 nM.

B41 came in with a Kd of 0.53 nM. On the same count and under the same terms, to B42 belongs 0.87 nM; to B43, 0.54 nM. For B44, the Kd is 0.69 nM.

In the case of B45, the Kd turned out to be 59.8 nM. This Kd lies about 87-fold higher than the previous one.
